Measurements published in the supplement of paper PMC10065799, “High-throughput profiling of sequence recognition by tyrosine kinases and SH2 domains using bacterial peptide display” (eLife, 2023).

Assays:
AncSZ = experiment: phosphorylation enrichment, bacterial display (enrichment ratio); higher = better substrate or ligand; peptides without Tyr show the background
EPHB1 = EPHB1 (UniProt P54762); experiment: as above
EPHB2 = EPHB2 (UniProt P29323); experiment: as above
FGFR1 = FGFR1 (UniProt P11362); experiment: as above
FGFR3 = FGFR3 (UniProt P22607); experiment: as above
Fer (mouse) = experiment: as above
Fes = Fes (UniProt P07332); experiment: as above
Chain of Fes (P07332 whole entry, looked up): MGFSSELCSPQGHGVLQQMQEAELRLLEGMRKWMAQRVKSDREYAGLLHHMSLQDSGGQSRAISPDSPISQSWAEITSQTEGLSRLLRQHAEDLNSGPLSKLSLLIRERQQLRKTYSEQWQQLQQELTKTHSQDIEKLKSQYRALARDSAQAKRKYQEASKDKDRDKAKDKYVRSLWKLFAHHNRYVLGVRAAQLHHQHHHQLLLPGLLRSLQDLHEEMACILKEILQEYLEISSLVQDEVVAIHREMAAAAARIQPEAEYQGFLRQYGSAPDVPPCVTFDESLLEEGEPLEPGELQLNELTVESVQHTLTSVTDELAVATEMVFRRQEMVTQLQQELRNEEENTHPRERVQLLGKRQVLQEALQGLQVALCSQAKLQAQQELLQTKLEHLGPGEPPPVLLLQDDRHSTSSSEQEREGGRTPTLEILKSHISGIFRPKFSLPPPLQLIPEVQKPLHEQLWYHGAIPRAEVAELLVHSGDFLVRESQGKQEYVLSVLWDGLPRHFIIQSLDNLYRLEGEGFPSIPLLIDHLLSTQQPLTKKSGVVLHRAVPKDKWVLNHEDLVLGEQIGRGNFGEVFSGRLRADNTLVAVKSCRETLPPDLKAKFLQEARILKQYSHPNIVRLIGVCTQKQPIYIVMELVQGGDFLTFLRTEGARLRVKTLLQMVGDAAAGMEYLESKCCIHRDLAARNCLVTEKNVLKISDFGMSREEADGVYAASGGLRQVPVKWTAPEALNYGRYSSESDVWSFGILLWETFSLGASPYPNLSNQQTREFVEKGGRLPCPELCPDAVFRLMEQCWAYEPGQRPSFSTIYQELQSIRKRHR

Fyn = Fyn (UniProt P06241); experiment: as above
Chain of Fyn (P06241 whole entry, looked up): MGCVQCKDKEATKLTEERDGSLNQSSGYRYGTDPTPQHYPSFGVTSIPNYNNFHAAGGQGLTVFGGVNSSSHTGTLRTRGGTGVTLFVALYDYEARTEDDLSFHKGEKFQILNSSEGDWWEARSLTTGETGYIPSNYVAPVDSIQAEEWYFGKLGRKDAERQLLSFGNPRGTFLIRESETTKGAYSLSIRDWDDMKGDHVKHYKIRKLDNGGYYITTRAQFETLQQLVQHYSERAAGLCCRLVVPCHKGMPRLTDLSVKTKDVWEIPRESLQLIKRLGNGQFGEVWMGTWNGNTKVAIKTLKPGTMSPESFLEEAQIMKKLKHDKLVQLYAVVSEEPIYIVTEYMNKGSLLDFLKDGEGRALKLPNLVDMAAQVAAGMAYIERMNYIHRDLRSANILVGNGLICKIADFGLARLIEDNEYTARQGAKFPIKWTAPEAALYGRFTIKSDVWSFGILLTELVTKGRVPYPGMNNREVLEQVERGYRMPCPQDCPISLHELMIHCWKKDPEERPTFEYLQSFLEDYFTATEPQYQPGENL

Hck = Hck (UniProt P08631); experiment: as above
Chain of Hck (P08631 whole entry, looked up): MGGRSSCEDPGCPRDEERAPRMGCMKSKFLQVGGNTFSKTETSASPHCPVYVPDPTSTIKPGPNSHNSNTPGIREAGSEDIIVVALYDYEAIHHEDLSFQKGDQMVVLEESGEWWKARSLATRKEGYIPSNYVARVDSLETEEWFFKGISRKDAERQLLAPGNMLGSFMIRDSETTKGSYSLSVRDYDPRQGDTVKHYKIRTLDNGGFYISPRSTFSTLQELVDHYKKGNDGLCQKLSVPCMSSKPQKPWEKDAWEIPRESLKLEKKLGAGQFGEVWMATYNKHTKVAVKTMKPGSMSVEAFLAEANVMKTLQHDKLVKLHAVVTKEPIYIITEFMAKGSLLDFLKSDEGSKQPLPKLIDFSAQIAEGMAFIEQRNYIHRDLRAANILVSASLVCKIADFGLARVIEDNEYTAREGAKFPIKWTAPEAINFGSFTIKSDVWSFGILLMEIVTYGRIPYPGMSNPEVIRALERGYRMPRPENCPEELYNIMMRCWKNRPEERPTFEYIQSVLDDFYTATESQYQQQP

Jak2 = Jak2 (UniProt O60674); experiment: as above
Chain of Jak2 (O60674 whole entry, looked up): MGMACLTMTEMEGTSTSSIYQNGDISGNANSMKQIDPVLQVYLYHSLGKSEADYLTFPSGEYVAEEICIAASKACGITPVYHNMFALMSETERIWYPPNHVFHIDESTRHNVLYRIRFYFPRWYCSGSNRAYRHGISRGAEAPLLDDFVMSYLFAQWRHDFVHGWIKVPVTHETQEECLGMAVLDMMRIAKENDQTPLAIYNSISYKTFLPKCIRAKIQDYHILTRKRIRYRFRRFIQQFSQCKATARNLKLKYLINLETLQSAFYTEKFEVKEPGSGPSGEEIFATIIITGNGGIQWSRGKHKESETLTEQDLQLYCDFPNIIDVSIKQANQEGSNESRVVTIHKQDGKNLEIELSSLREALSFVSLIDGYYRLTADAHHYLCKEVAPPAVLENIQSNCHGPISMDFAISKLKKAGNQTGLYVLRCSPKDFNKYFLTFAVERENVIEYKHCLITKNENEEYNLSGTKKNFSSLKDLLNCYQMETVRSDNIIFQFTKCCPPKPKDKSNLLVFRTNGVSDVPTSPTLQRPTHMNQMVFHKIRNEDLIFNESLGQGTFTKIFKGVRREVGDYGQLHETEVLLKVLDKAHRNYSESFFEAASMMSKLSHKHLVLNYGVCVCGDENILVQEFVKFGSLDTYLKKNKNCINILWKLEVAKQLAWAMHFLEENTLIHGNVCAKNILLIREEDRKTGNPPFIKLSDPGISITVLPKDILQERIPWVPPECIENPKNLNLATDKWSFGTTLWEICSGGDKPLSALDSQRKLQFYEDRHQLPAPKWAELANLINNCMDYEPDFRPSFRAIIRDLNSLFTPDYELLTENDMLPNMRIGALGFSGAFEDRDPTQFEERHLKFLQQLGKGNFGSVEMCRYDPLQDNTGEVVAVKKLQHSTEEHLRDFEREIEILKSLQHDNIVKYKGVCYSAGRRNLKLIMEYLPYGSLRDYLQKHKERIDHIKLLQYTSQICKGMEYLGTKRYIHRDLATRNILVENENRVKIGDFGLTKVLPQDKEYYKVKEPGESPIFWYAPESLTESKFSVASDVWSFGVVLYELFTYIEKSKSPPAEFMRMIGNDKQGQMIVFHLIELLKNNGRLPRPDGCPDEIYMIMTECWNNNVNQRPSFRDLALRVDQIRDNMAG

MERTK = MERTK (UniProt Q12866); experiment: as above
c-Abl (mouse) = experiment: as above
c-Src = experiment: as above
Grb2 SH2 = Grb2 SH2 (UniProt P62993); experiment: SH2 binding enrichment of the phosphorylated peptide, bacterial display (enrichment ratio); higher = better substrate or ligand; peptides without Tyr show the background
SHP2-C SH2 = experiment: as above
c-Src SH2 = experiment: as above
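For SH2 binding enrichment of the phosphorylated peptide, bacterial display in this document: peptide library displayed on the E. coli surface as eCPX fusions, selected cells deep-sequenced, score is each peptide's frequency after selection divided by its frequency in the input.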
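For phosphorylation enrichment, bacterial display in this document: 11-residue human phosphosite peptides and single-mutation variants displayed on the E. coli surface, counted by deep sequencing, each peptide's frequency after selection divided by its frequency in the unselected input library; frequency after pTyr selection over input frequency; kinase dosed for 20-30% of maximal phosphorylation in three min.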

Chain of EPHB1 (P54762 whole entry, looked up): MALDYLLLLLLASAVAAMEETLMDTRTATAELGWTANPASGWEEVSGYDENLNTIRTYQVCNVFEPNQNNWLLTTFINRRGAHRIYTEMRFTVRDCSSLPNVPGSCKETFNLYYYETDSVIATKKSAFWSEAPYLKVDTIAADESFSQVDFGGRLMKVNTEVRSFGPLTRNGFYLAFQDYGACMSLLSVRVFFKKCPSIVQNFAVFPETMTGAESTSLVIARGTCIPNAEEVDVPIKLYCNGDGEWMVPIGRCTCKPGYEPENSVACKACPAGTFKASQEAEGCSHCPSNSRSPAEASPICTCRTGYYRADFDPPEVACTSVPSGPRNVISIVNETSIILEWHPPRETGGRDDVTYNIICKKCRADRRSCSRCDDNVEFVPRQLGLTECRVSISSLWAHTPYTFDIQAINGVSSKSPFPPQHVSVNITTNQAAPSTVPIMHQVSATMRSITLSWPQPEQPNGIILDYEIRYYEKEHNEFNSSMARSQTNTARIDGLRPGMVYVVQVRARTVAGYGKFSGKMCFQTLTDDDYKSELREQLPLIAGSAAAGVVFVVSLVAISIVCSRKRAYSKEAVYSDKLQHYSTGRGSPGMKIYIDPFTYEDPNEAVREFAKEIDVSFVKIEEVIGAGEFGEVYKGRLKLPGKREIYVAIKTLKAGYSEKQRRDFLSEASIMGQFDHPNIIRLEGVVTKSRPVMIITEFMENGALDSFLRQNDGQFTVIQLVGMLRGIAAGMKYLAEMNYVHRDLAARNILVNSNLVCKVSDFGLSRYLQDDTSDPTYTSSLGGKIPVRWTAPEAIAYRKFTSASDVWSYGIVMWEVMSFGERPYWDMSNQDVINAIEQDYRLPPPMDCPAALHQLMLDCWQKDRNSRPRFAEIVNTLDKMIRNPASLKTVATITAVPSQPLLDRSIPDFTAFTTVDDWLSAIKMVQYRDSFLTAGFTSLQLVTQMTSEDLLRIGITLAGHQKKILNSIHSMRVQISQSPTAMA
Chain of EPHB2 (P29323 whole entry, looked up): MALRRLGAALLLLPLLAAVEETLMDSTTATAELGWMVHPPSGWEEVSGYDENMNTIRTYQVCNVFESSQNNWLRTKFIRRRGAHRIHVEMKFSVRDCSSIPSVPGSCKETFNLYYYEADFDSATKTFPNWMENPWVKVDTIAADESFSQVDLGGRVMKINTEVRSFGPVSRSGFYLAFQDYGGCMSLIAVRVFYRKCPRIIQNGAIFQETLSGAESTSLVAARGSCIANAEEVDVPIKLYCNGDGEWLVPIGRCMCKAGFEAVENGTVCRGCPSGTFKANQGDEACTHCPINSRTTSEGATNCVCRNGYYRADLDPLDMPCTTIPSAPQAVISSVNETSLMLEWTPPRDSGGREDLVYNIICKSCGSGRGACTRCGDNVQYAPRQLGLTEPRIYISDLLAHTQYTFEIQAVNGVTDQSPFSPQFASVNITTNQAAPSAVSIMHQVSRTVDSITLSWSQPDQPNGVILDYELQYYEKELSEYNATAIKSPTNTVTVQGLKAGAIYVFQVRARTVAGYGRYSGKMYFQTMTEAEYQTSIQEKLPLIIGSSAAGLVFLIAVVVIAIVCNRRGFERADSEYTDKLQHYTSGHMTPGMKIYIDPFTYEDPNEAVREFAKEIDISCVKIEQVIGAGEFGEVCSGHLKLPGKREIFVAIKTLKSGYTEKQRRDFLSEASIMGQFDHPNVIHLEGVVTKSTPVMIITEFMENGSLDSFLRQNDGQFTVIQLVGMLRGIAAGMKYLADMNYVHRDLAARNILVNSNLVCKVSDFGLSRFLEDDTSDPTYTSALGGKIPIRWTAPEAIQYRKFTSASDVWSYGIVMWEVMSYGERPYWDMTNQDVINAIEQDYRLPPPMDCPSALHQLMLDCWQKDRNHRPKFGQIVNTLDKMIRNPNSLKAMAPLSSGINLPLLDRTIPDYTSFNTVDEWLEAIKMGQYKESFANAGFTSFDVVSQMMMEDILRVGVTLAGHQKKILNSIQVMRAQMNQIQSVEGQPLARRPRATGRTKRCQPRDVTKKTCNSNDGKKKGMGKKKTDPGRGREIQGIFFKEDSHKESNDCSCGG

| Sequence | SH2 binding enrichment (Grb2 SH2) | SH2 binding enrichment (SHP2-C SH2) | SH2 binding enrichment (c-Src SH2) | phosphorylation enrichment (AncSZ) | phosphorylation enrichment (EPHB1) | phosphorylation enrichment (EPHB2) | phosphorylation enrichment (FGFR1) | phosphorylation enrichment (FGFR3) | phosphorylation enrichment (Fer (mouse)) | phosphorylation enrichment (Fes) | phosphorylation enrichment (Fyn) | phosphorylation enrichment (Hck) | phosphorylation enrichment (Jak2) | phosphorylation enrichment (MERTK) | phosphorylation enrichment (c-Abl (mouse)) | phosphorylation enrichment (c-Src) |
| --- | --- | --- | --- | --- | --- | --- | --- | --- | --- | --- | --- | --- | --- | --- | --- | --- |
| KVITDYYVDMK [MPP4_Y566] | 0.875 | 0.704 | 2.9 | 1.26 | 1.71 | 0.865 | 3.97 | 2.64 | 0.496 | 1.07 | 0.557 | 0.576 | 1.4 | 0.577 | 0.758 | 0.597 |
| KWKQKYEESQS [MYH6_Y1462_E1457K] | 1.35 | 1.09 | 1.04 | 0.671 | 0.508 | 0.52 | 0.431 | 0.693 | 0.405 | 0.887 | 0.481 | 0.531 | 0.85 | 0.431 | 0.73 | 0.38 |
| KWLEQYTQAIE [LSP1_Y234_Q229K] | 0.993 | 0.806 | 0.782 | 1.04 | 0.499 | 0.683 | 0.472 | 0.573 | 0.442 | 0.977 | 0.454 | 0.441 | 0.915 | 0.39 | 0.702 | 0.452 |
| LAAAGYDVEKN [H1-3_Y72] | 0.723 | 0.791 | 0.484 | 0.909 | 0.463 | 0.482 | 0.51 | 0.658 | 0.436 | 1.03 | 0.493 | 0.692 | 0.711 | 0.54 | 0.582 | 0.365 |
| LAARYYNWVSF [FLT4_Y1231] | 6.96 | 1.38 | 2.3 | 1.55 | 1.09 | 1.02 | 4.29 | 3.57 | 5.18 | 1.8 | 0.654 | 0.64 | 2.14 | 4.42 | 1.68 | 1 |
| LALTVYADCLA [ABCA4_Y2063_G2059A] | 0.624 | 0.508 | 0.572 | 1.42 | 1.08 | 0.938 | 0.665 | 1.05 | 0.781 | 1.48 | 0.699 | 0.73 | 1.53 | 0.517 | 1.09 | 0.62 |
| LARHMYDKEFF [MET_Y1230_D1228H_YF] | 0.7 | 0.65 | 0.546 | 0.78 | 0.355 | 0.438 | 0.606 | 0.55 | 0.29 | 1.08 | 0.404 | 0.399 | 0.646 | 0.559 | 0.524 | 0.688 |
| LASSEYPVRRR [GALK1_Y236] | 0.512 | 0.426 | 0.336 | 0.62 | 0.542 | 0.472 | 0.45 | 0.496 | 0.363 | 0.612 | 0.543 | 0.514 | 0.475 | 0.526 | 0.448 | 0.572 |
| LCRYGYANTSE [SI_Y1233] | 2 | 0.85 | 2.24 | 1.31 | 0.78 | 0.661 | 0.656 | 1.36 | 0.746 | 1.41 | 0.688 | 0.772 | 1.11 | 1.15 | 0.932 | 0.789 |
| LDYNEYVRDLN [HPRT1_Y198_F199V] | 0.795 | 1.03 | 0.757 | 1.63 | 0.761 | 0.993 | 0.951 | 1.07 | 0.535 | 1.23 | 0.695 | 0.712 | 1.06 | 0.441 | 0.587 | 0.565 |
| LEFGDYHPLKP [VPS35L_Y32] | 0.902 | 0.733 | 0.58 | 2.75 | 1.3 | 1.26 | 11.5 | 7.68 | 0.846 | 1.05 | 0.696 | 4.28 | 6.7 | 1.66 | 1.19 | 0.821 |
| LEGKEYRMSGE [KRT3_Y511_E509K] | 0.85 | 1.12 | 0.362 | 0.73 | 0.434 | 0.333 | 0.432 | 0.618 | 0.455 | 0.985 | 0.456 | 0.409 | 0.923 | 0.439 | 0.583 | 0.415 |
| LEISPYMLSGR [LRRK2_Y1718] | 0.9 | 0.722 | 0.781 | 0.852 | 1.02 | 1.1 | 0.718 | 0.652 | 0.806 | 1.28 | 1.44 | 0.932 | 0.64 | 0.588 | 0.491 | 0.929 |
| LEYNEYFRDLN [HPRT1_Y198_D194E] | 0.998 | 0.592 | 0.451 | 2.6 | 1.18 | 0.975 | 1.89 | 1.75 | 0.804 | 2.09 | 1.01 | 0.847 | 2.17 | 0.605 | 1.3 | 1.14 |
| LFSINYLHFGD [KDM4C_Y201_E206D_YF] | 1.5 | 1.23 | 1.24 | 1.32 | 1.19 | 0.538 | 1.07 | 1.22 | 0.813 | 1.56 | 0.561 | 0.71 | 1.56 | 0.783 | 0.968 | 0.612 |
| LGSNTYPFLLM [SAG_Y120_T125M] | 0.808 | 0.435 | 0.427 | 1.12 | 0.835 | 0.783 | 1.91 | 1.86 | 0.646 | 1.73 | 0.384 | 0.492 | 1.31 | 0.36 | 1.05 | 0.713 |
| LHQSTYQCFDV [SLC7A14_Y693_R695C_YF] | 0.688 | 0.56 | 0.455 | 1.25 | 2.34 | 0.896 | 1.14 | 1.11 | 2.23 | 1.25 | 3.33 | 1.42 | 1.14 | 2.26 | 1.05 | 5.09 |
| LHSEAYLKYNE [PBRM1_Y1610_I1614N] | 0.955 | 0.862 | 0.497 | 0.751 | 0.393 | 0.45 | 0.409 | 0.585 | 0.311 | 0.757 | 0.35 | 0.395 | 0.744 | 0.397 | 1.25 | 0.586 |
| LISVSYDDWDY [GRIN2A_Y281] | 1.07 | 1.39 | 1.9 | 2.2 | 0.813 | 0.827 | 0.901 | 1.05 | 4.25 | 1.92 | 0.773 | 0.666 | 1.35 | 0.691 | 1.01 | 0.652 |

Continued, in another order:

| SH2 binding enrichment (Grb2 SH2) | SH2 binding enrichment (SHP2-C SH2) | SH2 binding enrichment (c-Src SH2) | Sequence | phosphorylation enrichment (AncSZ) | phosphorylation enrichment (EPHB1) | phosphorylation enrichment (EPHB2) | phosphorylation enrichment (FGFR1) | phosphorylation enrichment (FGFR3) | phosphorylation enrichment (Fer (mouse)) | phosphorylation enrichment (Fes) | phosphorylation enrichment (Fyn) | phosphorylation enrichment (Hck) | phosphorylation enrichment (Jak2) | phosphorylation enrichment (MERTK) | phosphorylation enrichment (c-Abl (mouse)) | phosphorylation enrichment (c-Src) |
| --- | --- | --- | --- | --- | --- | --- | --- | --- | --- | --- | --- | --- | --- | --- | --- | --- |
| 2.2 | 2.07 | 1.84 | KVKPIYFHTRG [AR_Y916_Q920R] | 0.853 | 0.452 | 0.498 | 0.598 | 0.614 | 0.416 | 0.892 | 0.448 | 0.527 | 0.885 | 0.456 | 0.633 | 0.477 |
| 1.26 | 1.2 | 1.56 | KVPRHYDDPGK [FOXG1_Y246] | 0.785 | 0.414 | 0.373 | 0.428 | 0.712 | 1.11 | 1.16 | 0.443 | 0.481 | 1.25 | 0.462 | 1.01 | 0.505 |
| 1.11 | 0.968 | 0.508 | LARDMDDKEFF [MET_Y1230_Y1230D_YF] | 0.895 | 0.451 | 0.53 | 0.453 | 1.08 | 0.428 | 0.997 | 0.342 | 0.456 | 0.708 | 0.523 | 0.464 | 0.498 |
| 1.25 | 1.43 | 1.15 | LARHMYDKEYY [MET_Y1230_D1228H] | 1.17 | 0.693 | 0.811 | 0.799 | 0.813 | 0.671 | 0.933 | 0.638 | 0.825 | 0.883 | 0.597 | 0.687 | 0.73 |
| 1.13 | 0.795 | 0.617 | LDFNEYVRDLN [HPRT1_Y198_F199V_YF] | 1.69 | 0.804 | 0.665 | 0.532 | 0.628 | 0.634 | 1.47 | 0.674 | 0.707 | 1.31 | 0.556 | 0.911 | 0.567 |
| 0.772 | 0.748 | 0.498 | LEAVSYSSRYA [RNLS_Y190] | 0.687 | 0.453 | 0.446 | 0.415 | 0.462 | 0.433 | 0.704 | 0.389 | 0.437 | 0.685 | 0.63 | 0.459 | 0.368 |
| 0.908 | 0.562 | 0.461 | LEGEEYRMSGE [KRT3_Y511] | 1.69 | 0.891 | 0.598 | 0.574 | 0.929 | 0.937 | 1.41 | 0.797 | 0.531 | 1.58 | 0.462 | 0.956 | 0.525 |
| 1.02 | 0.786 | 0.849 | LGSNGCKKLLK [SEPSECS_Y334_Y334C] | 0.823 | 0.611 | 1.04 | 0.661 | 0.868 | 0.472 | 0.826 | 0.567 | 0.768 | 1.06 | 0.866 | 1.06 | 0.663 |
| 1.36 | 1.24 | 1.11 | LHAAAYWNALA [UQCRC2_Y182_R183W] | 0.769 | 0.419 | 0.572 | 0.379 | 0.564 | 0.385 | 0.882 | 0.388 | 0.428 | 0.926 | 0.461 | 0.582 | 0.424 |
| 0.736 | 0.626 | 5.09 | LIEQAYDNLHE [PRPF8_Y871_P874L] | 1.44 | 0.623 | 0.877 | 0.6 | 1.05 | 0.821 | 1.38 | 0.714 | 1.15 | 0.593 | 0.426 | 0.479 | 0.325 |
